Experimental data as given in publication PMC6345845.
One block for each substance: values may come before it.

Experiments:
[1] = biological target: pseudo-wt PI4KB labeled with Atto488 (human) (UniProt Q9UBF8); experiment: fluorescence cross-correlation spectroscopy (FCCS); on GUV membrane; Atto488-PI4KB attached by tethered ACBD3; mCherry-Rab11-His tethered to the membrane via His tag; proteins approximately 50 nM
PI4KB (Homo sapiens) = PI4KB (Homo sapiens) (UniProt Q9UBF8); details: cited from earlier work
Sequence of PI4KB (Homo sapiens) (Q9UBF8 2-816): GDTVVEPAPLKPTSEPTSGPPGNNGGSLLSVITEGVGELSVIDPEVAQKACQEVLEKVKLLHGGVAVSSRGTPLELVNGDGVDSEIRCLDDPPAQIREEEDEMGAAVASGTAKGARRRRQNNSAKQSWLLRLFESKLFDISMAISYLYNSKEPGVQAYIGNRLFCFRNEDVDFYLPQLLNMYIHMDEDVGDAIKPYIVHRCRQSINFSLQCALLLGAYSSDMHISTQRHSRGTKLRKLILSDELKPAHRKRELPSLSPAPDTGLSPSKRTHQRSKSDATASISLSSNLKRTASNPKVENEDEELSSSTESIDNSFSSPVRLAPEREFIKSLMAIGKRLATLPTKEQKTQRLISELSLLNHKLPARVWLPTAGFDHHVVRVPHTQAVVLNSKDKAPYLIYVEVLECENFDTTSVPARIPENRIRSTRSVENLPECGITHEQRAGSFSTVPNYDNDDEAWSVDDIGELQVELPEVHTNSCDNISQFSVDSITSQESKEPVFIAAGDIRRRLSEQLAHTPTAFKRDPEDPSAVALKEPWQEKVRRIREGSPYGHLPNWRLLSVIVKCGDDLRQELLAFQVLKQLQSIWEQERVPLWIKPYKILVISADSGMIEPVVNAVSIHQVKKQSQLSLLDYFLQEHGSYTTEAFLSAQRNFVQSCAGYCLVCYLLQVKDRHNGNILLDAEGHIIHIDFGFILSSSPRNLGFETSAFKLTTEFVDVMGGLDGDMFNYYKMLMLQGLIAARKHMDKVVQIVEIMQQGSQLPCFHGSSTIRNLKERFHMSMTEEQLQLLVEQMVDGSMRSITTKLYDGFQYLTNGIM

[2] = biological target: phosphorylated PI4KB (residues 128-799, internal deletion 423-522, T292R, phosphorylated at S294 by PKA) (human) (UniProt Q9UBF8); experiment: AUC; sedimentation velocity, SEC buffer, 20 °C, 42 000 rpm; 14-3-3 + P-PI4KB + Rab11; stoichiometries independent of Rab11 nucleotide state
Sequence of phosphorylated PI4KB (residues 128-799, internal deletion 423-522, T292R, phosphorylated at S294 by PKA) (human) (Q9UBF8 other isoform, or with tags, fused parts or gaps with the stated changes): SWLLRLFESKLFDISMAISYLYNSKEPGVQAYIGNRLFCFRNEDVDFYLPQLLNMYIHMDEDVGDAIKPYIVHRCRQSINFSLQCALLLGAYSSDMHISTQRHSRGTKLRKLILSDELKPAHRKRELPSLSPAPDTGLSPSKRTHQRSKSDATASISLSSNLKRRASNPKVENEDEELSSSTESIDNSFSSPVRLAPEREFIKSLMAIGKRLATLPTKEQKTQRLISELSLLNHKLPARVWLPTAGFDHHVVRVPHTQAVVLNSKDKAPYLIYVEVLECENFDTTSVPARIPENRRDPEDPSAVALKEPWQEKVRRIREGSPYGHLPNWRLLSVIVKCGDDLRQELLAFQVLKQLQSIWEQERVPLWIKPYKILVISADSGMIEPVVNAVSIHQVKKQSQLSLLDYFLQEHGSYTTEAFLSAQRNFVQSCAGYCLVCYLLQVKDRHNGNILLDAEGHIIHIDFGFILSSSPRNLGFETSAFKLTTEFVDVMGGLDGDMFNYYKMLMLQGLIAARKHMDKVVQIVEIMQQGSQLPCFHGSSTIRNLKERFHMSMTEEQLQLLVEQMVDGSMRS

[3] = biological target: phosphorylated PI4KB (residues 128-799, internal deletion 423-522, T292R, phosphorylated at S294 by PKA) (human) (UniProt Q9UBF8); experiment: AUC; sedimentation velocity, SEC buffer, 20 °C, 42 000 rpm; P-PI4KB alone (20 µM) and with Rab11; stoichiometries independent of Rab11 nucleotide state
14-3-3 = 14-3-3 (UniProt P63104); experiment: AUC; sedimentation velocity, SEC buffer, 20 °C, 42 000 rpm; 14-3-3 + P-PI4KB + Rab11; stoichiometries independent of Rab11 nucleotide state

Sequence of pseudo-wt PI4KB labeled with Atto488 (human) (Q9UBF8 other isoform, or with tags, fused parts or gaps): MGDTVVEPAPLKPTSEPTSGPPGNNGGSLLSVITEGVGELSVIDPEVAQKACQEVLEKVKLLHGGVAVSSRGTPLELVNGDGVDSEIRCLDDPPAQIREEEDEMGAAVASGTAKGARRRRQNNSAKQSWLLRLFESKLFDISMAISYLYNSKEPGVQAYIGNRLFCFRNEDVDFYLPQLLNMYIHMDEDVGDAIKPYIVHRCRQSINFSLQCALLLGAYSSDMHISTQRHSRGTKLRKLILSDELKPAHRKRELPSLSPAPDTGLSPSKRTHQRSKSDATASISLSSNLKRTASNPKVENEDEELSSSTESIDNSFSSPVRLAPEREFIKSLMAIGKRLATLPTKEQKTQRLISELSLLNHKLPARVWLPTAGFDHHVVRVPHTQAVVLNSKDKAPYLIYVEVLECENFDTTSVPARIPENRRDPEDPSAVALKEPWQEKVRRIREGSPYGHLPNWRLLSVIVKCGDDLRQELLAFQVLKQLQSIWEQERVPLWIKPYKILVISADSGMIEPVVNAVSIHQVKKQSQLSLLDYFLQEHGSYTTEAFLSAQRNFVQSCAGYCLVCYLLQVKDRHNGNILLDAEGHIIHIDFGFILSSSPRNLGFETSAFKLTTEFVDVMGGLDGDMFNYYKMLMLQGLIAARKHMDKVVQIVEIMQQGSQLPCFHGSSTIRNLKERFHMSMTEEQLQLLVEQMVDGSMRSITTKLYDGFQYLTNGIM
Sequence of ACBD3 (Q9H3P7 whole entry): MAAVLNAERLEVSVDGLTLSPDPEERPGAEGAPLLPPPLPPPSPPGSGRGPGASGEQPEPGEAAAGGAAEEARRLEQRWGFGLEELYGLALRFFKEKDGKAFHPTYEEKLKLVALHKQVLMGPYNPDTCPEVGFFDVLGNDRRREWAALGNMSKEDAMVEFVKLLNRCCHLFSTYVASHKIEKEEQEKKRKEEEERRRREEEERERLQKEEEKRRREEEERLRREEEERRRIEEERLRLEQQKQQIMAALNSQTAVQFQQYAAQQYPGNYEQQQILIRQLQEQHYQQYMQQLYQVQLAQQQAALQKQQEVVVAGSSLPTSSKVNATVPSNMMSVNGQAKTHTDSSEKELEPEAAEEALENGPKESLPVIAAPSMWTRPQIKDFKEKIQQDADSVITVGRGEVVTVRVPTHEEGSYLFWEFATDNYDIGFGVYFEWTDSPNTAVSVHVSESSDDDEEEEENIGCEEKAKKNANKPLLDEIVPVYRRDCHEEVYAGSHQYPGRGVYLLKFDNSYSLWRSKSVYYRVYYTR

percent of Rab11 in the complex [1]: 10%
Substance: mCherry-Rab11-His (membrane tethered) (from UniProt P62491 1-216) (natural protein)

Substance: ACBD3 (from UniProt Q9H3P7)
Kd (PI4KB (Homo sapiens)): 300 nM

stoichiometry N [2]: 1
stoichiometry N [3]: 1
Substance: Rab11 (from UniProt P62491 1-216) (natural protein)

stoichiometry N (14-3-3): 2
stoichiometry N (14-3-3 chains per PI4KB) [2]: 2
Substance: 14-3-3 (from UniProt P63104 1-230) (natural protein)
